In patent publication US20250002543A1:

What was measured:
[1] = biological target: immunoglobulin immobilized on IgG Sepharose 6 Fast Flow (manufactured by Cytiva); experiment: IgG Sepharose 6 Fast Flow column; linear gradient 0.1 M citrate pH 6.5 to pH 2.2; pH at the peak of the eluted binding protein
[2] = biological target: Herceptin containing human κ light chain subgroup 1 (Vκ1) (manufactured by Chugai Pharmaceutical Co., Ltd.); experiment: ELISA; Herceptin immobilised, binding protein at 2 ug/mL, dissociation with 0.05 M citric acid pH 2.7 for 2 min, absorbance ratio to wells without dissociation

Elution pH [1]: 2.9 pH
Elution rate [%] [2]: 76%
Substance: FpL_C3 (wild-type), immunoglobulin-binding domain C3 of protein L (FpL) of Finegoldia magna
